# Assay results reported in the MegaScale stability set (Tsuboyama et al. 2023).
# B1: 1ZHC (parent)
# chain: HEFRDEISVLKANNPHFDKIFEKHNQLDDDIKTAEQQNASDAEVSHMKKQKLKLKDEIHSMIIEYREK
# Variants of: B1
# Assay: folding stability dG (cDNA display proteolysis); higher = more stable
# Conditions: PBS, room temperature
row,Variant,folding stability dG
1,HEFRDEISVLKANNPHFDKIFEKHNQLDDDIKTAEQQNASDARVSHMKKQKLKLKDEIHSMIIEYREK [E43R],1.08 kcal/mol
2,HEFRDEISVLKANNPHFDKIFEKHNQLDDDIKTAEQQNASDAWVSHMKKQKLKLKDEIHSMIIEYREK [E43W],1.26 kcal/mol
3,HEFRDEISVLKANNPHFDKIFEKHNQLDDDIKTAEQQNASDALVSHMKKQKLKLKDEIHSMIIEYREK [E43L],1.14 kcal/mol
4,HEFRDEISVLKANNPHFDKIFEKHNQLDDDIKTAEQQNASDATVSHMKKQKLKLKDEIHSMIIEYREK [E43T],0.763 kcal/mol
5,HEFRDEISVLKANNPHFDKIFEKHNQLDDDIKTAEQQNASDAFVSHMKKQKLKLKDEIHSMIIEYREK [E43F],1.07 kcal/mol
6,HEFRDEISVLKANNPHFDKIFEKHNQLDDDIKTAEQQNASDAYVSHMKKQKLKLKDEIHSMIIEYREK [E43Y],1.2 kcal/mol
7,HEFRDEISVLKANNPHFDKIFEKHNQLDDDIKTAEQQNASDADVSHMKKQKLKLKDEIHSMIIEYREK [E43D],1.26 kcal/mol
8,HEFRDEISVLKANNPHFDKIFEKHNQLDDDIKTAEQQNASDAMVSHMKKQKLKLKDEIHSMIIEYREK [E43M],1.12 kcal/mol
9,HEFRDEISVLKANNPHFDKIFEKHNQLDDDIKTAEQQNASDACVSHMKKQKLKLKDEIHSMIIEYREK [E43C],1.01 kcal/mol
10,HEFRDEISVLKANNPHFDKIFEKHNQLDDDIKTAEQQNASDAVVSHMKKQKLKLKDEIHSMIIEYREK [E43V],1.22 kcal/mol
11,HEFRDEISVLKANNPHFDKIFEKHNQLDDDIKTAEQQNASDAHVSHMKKQKLKLKDEIHSMIIEYREK [E43H],0.621 kcal/mol
12,HEFRDEISVLKANNPHFDKIFEKHNQLDDDIKTAEQQNASDAQVSHMKKQKLKLKDEIHSMIIEYREK [E43Q],0.669 kcal/mol
13,HEFRDEISVLKANNPHFDKIFEKHNQLDDDIKTAEQQNASDAGVSHMKKQKLKLKDEIHSMIIEYREK [E43G],-0.301 kcal/mol
14,HEFRDEISVLKANNPHFDKIFEKHNQLDDDIKTAEQQNASDAIVSHMKKQKLKLKDEIHSMIIEYREK [E43I],1.27 kcal/mol
15,HEFRDEISVLKANNPHFDKIFEKHNQLDDDIKTAEQQNASDANVSHMKKQKLKLKDEIHSMIIEYREK [E43N],0.299 kcal/mol
16,HEFRDEISVLKANNPHFDKIFEKHNQLDDDIKTAEQQNASDASVSHMKKQKLKLKDEIHSMIIEYREK [E43S],0.44 kcal/mol
17,HEFRDEISVLKANNPHFDKIFEKHNQLDDDIKTAEQQNASDAKVSHMKKQKLKLKDEIHSMIIEYREK [E43K],1.24 kcal/mol
18,HEFRDEISVLKANNPHFDKIFEKHNQLDDDIKTAEQQNASDAAVSHMKKQKLKLKDEIHSMIIEYREK [E43A],0.759 kcal/mol
19,HEFRDEISVLKANNPHFDKIFEKHNQLDDDIKTAEQQNASDAEVSHMFKQKLKLKDEIHSMIIEYREK [K48F],0.266 kcal/mol
20,HEFRDEISVLKANNPHFDKIFEKHNQLDDDIKTAEQQNASDAEVSHMCKQKLKLKDEIHSMIIEYREK [K48C],0.421 kcal/mol
21,HEFRDEISVLKANNPHFDKIFEKHNQLDDDIKTAEQQNASDAEVSHMIKQKLKLKDEIHSMIIEYREK [K48I],0.568 kcal/mol
22,HEFRDEISVLKANNPHFDKIFEKHNQLDDDIKTAEQQNASDAEVSHMAKQKLKLKDEIHSMIIEYREK [K48A],0.086 kcal/mol
23,HEFRDEISVLKANNPHFDKIFEKHNQLDDDIKTAEQQNASDAEVSHMEKQKLKLKDEIHSMIIEYREK [K48E],-0.818 kcal/mol
24,HEFRDEISVLKANNPHFDKIFEKHNQLDDDIKTAEQQNASDAEYSHMKKQKLKLKDEIHSMIIEYREK [V44Y],-0.518 kcal/mol
25,HEFRDEISVLKANNPHFDKIFEKHNQLDDDIKTAEQQNASDAERSHMKKQKLKLKDEIHSMIIEYREK [V44R],-0.295 kcal/mol
26,HEFRDEISVLKANNPHFDKIFEKHNQLDDDIKTAEQQNASDAECSHMKKQKLKLKDEIHSMIIEYREK [V44C],-0.468 kcal/mol
27,HEFRDEISVLKANNPHFDKIFEKHNQLDDDIKTAEQQNASDAEKSHMKKQKLKLKDEIHSMIIEYREK [V44K],-0.664 kcal/mol

row,Variant,folding stability dG
1,HEFRDEISVLKANNPHFDKIFEKHNQLDDDIKTAEQQNASDAETSHMKKQKLKLKDEIHSMIIEYREK [V44T],-0.308 kcal/mol
2,HEFRDEISVLKANNPHFDKIFEKHNQLDDDIKTAEQQNASDAEGSHMKKQKLKLKDEIHSMIIEYREK [V44G],0.622 kcal/mol
3,HEFRDEISVLKANNPHFDKIFEKHNQLDDDIKTAEQQNASDAEISHMKKQKLKLKDEIHSMIIEYREK [V44I],1.57 kcal/mol
4,HEFRDEISVLKANNPHFDKIFEKHNQLDDDIKTAEQQNASDAESSHMKKQKLKLKDEIHSMIIEYREK [V44S],-0.907 kcal/mol
5,HEFRDEISVLKANNPHFDKIFEKHNQLDDDIKTAEQQNASDAELSHMKKQKLKLKDEIHSMIIEYREK [V44L],1.37 kcal/mol
6,HEFRDEISVLKANNPHFDKIFEKHNQLDDDIKTAEQQNASDAEMSHMKKQKLKLKDEIHSMIIEYREK [V44M],0.497 kcal/mol
7,HEFRDEISVLKANNPHFDKIFEKHNQLDDDIKTAEQQNASDVEVSHMKKQKLKLKDEIHSMIIEYREK [A42V],0.662 kcal/mol
8,HEFRDEISVLKANNPHFDKIFEKHNQLDDDIKTAEQQNASDWEVSHMKKQKLKLKDEIHSMIIEYREK [A42W],0.189 kcal/mol
9,HEFRDEISVLKANNPHFDKIFEKHNQLDDDIKTAEQQNASDYEVSHMKKQKLKLKDEIHSMIIEYREK [A42Y],0.635 kcal/mol
10,HEFRDEISVLKANNPHFDKIFEKHNQLDDDIKTAEQQNASDAEVSSMKKQKLKLKDEIHSMIIEYREK [H46S],1.28 kcal/mol
11,HEFRDEISVLKANNPHFDKIFEKHNQLDDDIKTAEQQNASDAEVSKMKKQKLKLKDEIHSMIIEYREK [H46K],1.46 kcal/mol
12,HEFRDEISVLKANNPHFDKIFEKHNQLDDDIKTAEQQNASDAEVSIMKKQKLKLKDEIHSMIIEYREK [H46I],1.23 kcal/mol
13,HEFRDEISVLKANNPHFDKIFEKHNQLDDDIKTAEQQNASDAEVSDMKKQKLKLKDEIHSMIIEYREK [H46D],0.734 kcal/mol
14,HEFRDEISVLKANNPHFDKIFEKHNQLDDDIKTAEQQNASDAEVSAMKKQKLKLKDEIHSMIIEYREK [H46A],1.5 kcal/mol
15,HEFRDEISVLKANNPHFDKIFEKHNQLDDDIKTAEQQNASDAEVSLMKKQKLKLKDEIHSMIIEYREK [H46L],1.36 kcal/mol
16,HEFRDEISVLKANNPHFDKIFEKHNQLDDDIKTAEQQNASDAEVSVMKKQKLKLKDEIHSMIIEYREK [H46V],0.657 kcal/mol
17,HEFRDEISVLKANNPHFDKIFEKHNQLDDDIKTAEQQNASDAEVSQMKKQKLKLKDEIHSMIIEYREK [H46Q],1.17 kcal/mol
18,HEFRDEISVLKANNPHFDKIFEKHNQLDDDIKTAEQQNASDAEVSMMKKQKLKLKDEIHSMIIEYREK [H46M],1.1 kcal/mol
19,HEFRDEISVLKANNPHFDKIFEKHNQLDDDIKTAEQQNASDAEVSPMKKQKLKLKDEIHSMIIEYREK [H46P],-0.278 kcal/mol
20,HEFRDEISVLKANNPHFDKIFEKHNQLDDDIKTAEQQNASDAEVSEMKKQKLKLKDEIHSMIIEYREK [H46E],1.47 kcal/mol
21,HEFRDEISVLKANNPHFDKIFEKHNQLDDDIKTAEQQNASDAEVSRMKKQKLKLKDEIHSMIIEYREK [H46R],1.97 kcal/mol
22,HEFRDEISVLKANNPHFDKIFEKHNQLDDDIKTAEQQNASDAEVSCMKKQKLKLKDEIHSMIIEYREK [H46C],1.09 kcal/mol
23,HEFRDEISVLKANNPHFDKIFEKHNQLDDDIKTAEQQNASDAEVSYMKKQKLKLKDEIHSMIIEYREK [H46Y],1.19 kcal/mol
24,HEFRDEISVLKANNPHFDKIFEKHNQLDDDIKTAEQQNASDAEVSNMKKQKLKLKDEIHSMIIEYREK [H46N],1.14 kcal/mol
25,HEFRDEISVLKANNPHFDKIFEKHNQLDDDIKTAEQQNASDAEVSGMKKQKLKLKDEIHSMIIEYREK [H46G],0.785 kcal/mol
26,HEFRDEISVLKANNPHFDKIFEKHNQLDDDIKTAEQQNASDAEVSTMKKQKLKLKDEIHSMIIEYREK [H46T],0.889 kcal/mol
27,HEFRDEISVLKANNPHFDKIFEKHNQLDDDIKTAEQQNASDAEVSFMKKQKLKLKDEIHSMIIEYREK [H46F],1.02 kcal/mol

row,Variant,folding stability dG
1,HEFRDEISVLKANNPHFDKIFEKHNQLDDDIKTAEQQNASDAEVSWMKKQKLKLKDEIHSMIIEYREK [H46W],1.29 kcal/mol
2,HEFRDEISVLKANNPHFDKIFEKHNQLDDDIKTAEQQNASDAEVFHMKKQKLKLKDEIHSMIIEYREK [S45F],0.625 kcal/mol
3,HEFRDEISVLKANNPHFDKIFEKHNQLDDDIKTAEQQNASDAEVLHMKKQKLKLKDEIHSMIIEYREK [S45L],0.524 kcal/mol
4,HEFRDEISVLKANNPHFDKIFEKHNQLDDDIKTAEQQNASDAEVEHMKKQKLKLKDEIHSMIIEYREK [S45E],1.07 kcal/mol
5,HEFRDEISVLKANNPHFDKIFEKHNQLDDDIKTAEQQNASDAEVVHMKKQKLKLKDEIHSMIIEYREK [S45V],0.431 kcal/mol
6,HEFRDEISVLKANNPHFDKIFEKHNQLDDDIKTAEQQNASDAEVCHMKKQKLKLKDEIHSMIIEYREK [S45C],1.15 kcal/mol
7,HEFRDEISVLKANNPHFDKIFEKHNQLDDDIKTAEQQNASDAEVRHMKKQKLKLKDEIHSMIIEYREK [S45R],0.873 kcal/mol
8,HEFRDEISVLKANNPHFDKIFEKHNQLDDDIKTAEQQNASDAEVGHMKKQKLKLKDEIHSMIIEYREK [S45G],0.349 kcal/mol
9,HEFRDEISVLKANNPHFDKIFEKHNQLDDDIKTAEQQNASDAEVWHMKKQKLKLKDEIHSMIIEYREK [S45W],0.834 kcal/mol
10,HEFRDEISVLKANNPHFDKIFEKHNQLDDDIKTAEQQNASDAEVHHMKKQKLKLKDEIHSMIIEYREK [S45H],0.845 kcal/mol
11,HEFRDEISVLKANNPHFDKIFEKHNQLDDDIKTAEQQNASDAEVIHMKKQKLKLKDEIHSMIIEYREK [S45I],0.788 kcal/mol
12,HEFRDEISVLKANNPHFDKIFEKHNQLDDDIKTAEQQNASDAEVMHMKKQKLKLKDEIHSMIIEYREK [S45M],1.01 kcal/mol
13,HEFRDEISVLKANNPHFDKIFEKHNQLDDDIKTAEQQNASDAEVKHMKKQKLKLKDEIHSMIIEYREK [S45K],0.976 kcal/mol
14,HEFRDEISVLKANNPHFDKIFEKHNQLDDDIKTAEQQNASDAEVYHMKKQKLKLKDEIHSMIIEYREK [S45Y],0.766 kcal/mol
15,HEFRDEISVLKANNPHFDKIFEKHNQLDDDIKTAEQQNASDAEVAHMKKQKLKLKDEIHSMIIEYREK [S45A],1.09 kcal/mol
16,HEFRDEISVLKANNPHFDKIFEKHNQLDDDIKTAEQQNASDAEVTHMKKQKLKLKDEIHSMIIEYREK [S45T],1.34 kcal/mol
17,HEFRDEISVLKANNPHFDKIFEKHNQLDDDIKTAEQQNASDAEVNHMKKQKLKLKDEIHSMIIEYREK [S45N],1.05 kcal/mol
18,HEFRDEISVLKANNPHFDKIFEKHNQLDDDIKTAEQQNASDAEVDHMKKQKLKLKDEIHSMIIEYREK [S45D],0.937 kcal/mol
19,HEFRDEISVLKANNPHFDKIFEKHNQLDDDIKTAEQQNASDAEVSHYKKQKLKLKDEIHSMIIEYREK [M47Y],-0.412 kcal/mol
20,HEFRDEISVLKANNPHFDKIFEKHNQLDDDIKTAEQQNASDAEVSHCKKQKLKLKDEIHSMIIEYREK [M47C],-0.078 kcal/mol
21,HEFRDEISVLKANNPHFDKIFEKHNQLDDDIKTAEQQNASDAEVSHWKKQKLKLKDEIHSMIIEYREK [M47W],0.576 kcal/mol
22,HEFRDEISVLKANNPHFDKIFEKHNQLDDDIKTAEQQNASDAEVSHLKKQKLKLKDEIHSMIIEYREK [M47L],1.59 kcal/mol
23,HEFRDEISVLKANNPHFDKIFEKHNQLDDDIKTAEQQNASDAEVSHVKKQKLKLKDEIHSMIIEYREK [M47V],-0.869 kcal/mol
24,HEFRDEISVLKANNPHFDKIFEKHNQLDDDIKTAEQQNASDAEVSHAKKQKLKLKDEIHSMIIEYREK [M47A],-0.981 kcal/mol
25,HEFRDEISVLKANNPHFDKIFEKHNQLDDDIKTAEQQNASDAEVSHIKKQKLKLKDEIHSMIIEYREK [M47I],-0.393 kcal/mol
